Assay results from the supplement of paper PMC7877785.
± gives the uncertainty stated by the source.

Test: self-splicing fitness, log relative to wild type (ln ratio); higher = more splicing; Tetrahymena group I intron in knt gene, E. coli kanamycin selection, DiMSum; sequences stand for … in CUCUCU…GGAGGGAAAAGUUAUCAGGCAUGCACCUGGUAGCUAGUCUUUAAACCAAUAGAUUGCAUCGGUUUAAAAGGCAAGACCGUCAAAUUGCGGGAAAGGGGUCAACAGCCGUUCAGUACCAAGUCUCAGGGGAAACUUUGAGAUGGCCUUGCAAAGGGUAUGGUAAUAAGCUGACGGACAUGGUCCUAACCACGCAGCCAAGUCCUAAGUCAACAGAUCUUCUGUUGAUAUGGAUGCAGUUCACAGACUAAAUGUCGGUCGGGGAAGAUGUAUUCUUCUCAUAAGAUAUAGUCGGACCUCUCCUUAAUGGGAGCUAGCGGAUGAAGUGAUGCAACACUGGAGCCGCUGGGAACUAAUUUGUAUGCGAAAGUAUAUUGAUUAGUUUUGGAGUACUCGUGGUCG
In short: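 Library with all eight P1ex-region intron nucleotides randomised, intron inside the knt kanamycin-resistance gene on pET-22b(+), in E. coli BL21(DE3). Cells grew overnight at 37°C or 30°C on LB agar with or without 25 μg/mL kanamycin (plus 100 μg/mL carbenicillin, 50 μM IPTG, 0.2% rhamnose), in six replicate transformations. Pooled colonies were amplicon-sequenced on Illumina HiSeq 2500. DiMSum fitness is the error-weighted combination of wild-type-normalised replicate fold changes, kanamycin versus none.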

| Sequence | self-splicing fitness (ln) (30 °C) | self-splicing fitness (ln) (37 °C) |
| --- | --- | --- |
| GAUAAGCAAUAUUACGAGCA | -2.12 ± 0.18 | -0.853 ± 0.16 |
| GAUAAGCAAUAUUACGAGUA | -1.84 ± 0.15 | -1.45 ± 0.14 |
| GAUAAGCAAUAUUACGAGUG | -1.04 ± 0.074 | -0.835 ± 0.066 |
| GAUAAGCAAUAUUACGAUAU | -1.13 ± 0.095 | -0.335 ± 0.15 |
| GAUAAGCAAUAUUACGAUGU | -0.525 ± 0.082 | -0.545 ± 0.1 |
| GAUAAGCAAUAUUACGCAAC | – | -0.343 ± 0.46 |
| GAUAAGCAAUAUUACGCACC | -1.96 ± 0.16 | -0.327 ± 0.2 |
| GAUAAGCAAUAUUACGCCAU | -2.79 ± 0.21 | -1.72 ± 0.17 |
| GAUAAGCAAUAUUACGCUCA | -1 ± 0.07 | 0.0635 ± 0.097 |
| GAUAAGCAAUAUUACGCUGC | -2.88 ± 0.23 | -3.04 ± 0.3 |
| GAUAAGCAAUAUUACGGAGU | -2.46 ± 0.16 | -0.942 ± 0.14 |
| GAUAAGCAAUAUUACGGCUA | -0.974 ± 0.12 | 0.143 ± 0.15 |
| GAUAAGCAAUAUUACGGGGA | – | -2.16 ± 0.23 |
| GAUAAGCAAUAUUACGGUAG | -3.17 ± 0.23 | -2.35 ± 0.27 |
| GAUAAGCAAUAUUACGUCGU | -1.68 ± 0.072 | -0.373 ± 0.086 |
| GAUAAGCAAUAUUACGUCUC | -1.74 ± 0.085 | -0.95 ± 0.1 |
| GAUAAGCAAUAUUACGUCUU | -0.224 ± 0.069 | 0.135 ± 0.088 |
| GAUCAGCAAUAUUACGAAAC | -0.961 ± 0.39 | 0.628 ± 0.41 |
| GAUCAGCAAUAUUACGAAAG | -0.98 ± 0.14 | -1.2 ± 0.24 |
| GAUCAGCAAUAUUACGAAAU | -0.667 ± 0.081 | 0.175 ± 0.1 |
| GAUCAGCAAUAUUACGAAGA | -0.925 ± 0.11 | -0.0626 ± 0.11 |
| GAUCAGCAAUAUUACGAAGG | -2.62 ± 0.13 | -1.59 ± 0.14 |
| GAUCAGCAAUAUUACGAGAU | -3 ± 0.15 | -1.55 ± 0.13 |
| GAUCAGCAAUAUUACGAUGC | -0.684 ± 0.12 | 0.0112 ± 0.12 |
| GAUCAGCAAUAUUACGAUUC | -3.05 ± 0.38 | -1.79 ± 0.27 |

| Sequence | self-splicing fitness (ln) (30 °C) | self-splicing fitness (ln) (37 °C) |
| --- | --- | --- |
| GAUCAGCAAUAUUACGCACC | -0.91 ± 0.18 | -0.086 ± 0.23 |
| GAUCAGCAAUAUUACGCGAG | -0.684 ± 0.07 | -1.15 ± 0.073 |
| GAUCAGCAAUAUUACGCUGU | -3.03 ± 0.21 | -2.38 ± 0.16 |
| GAUCAGCAAUAUUACGGAAA | -1.01 ± 0.16 | -0.212 ± 0.17 |
| GAUCAGCAAUAUUACGGACU | -0.52 ± 0.12 | -0.894 ± 0.13 |
| GAUCAGCAAUAUUACGGGCU | -1.98 ± 0.085 | -1.4 ± 0.1 |
| GAUCAGCAAUAUUACGGGGG | -3.25 ± 0.18 | -2.51 ± 0.18 |
| GAUCAGCAAUAUUACGUCAC | -3.88 ± 0.2 | -2.13 ± 0.15 |
| GAUCAGCAAUAUUACGUCUG | -2.63 ± 0.11 | -1.84 ± 0.1 |
| GAUCAGCAAUAUUACGUGAG | -0.0667 ± 0.052 | 0.101 ± 0.074 |
| GAUCAGCAAUAUUACGUUGC | -2.84 ± 0.27 | -3.1 ± 0.31 |
| GAUGAGCAAUAUUACGAGCA | -2.59 ± 0.37 | – |
| GAUGAGCAAUAUUACGAGUA | -3.4 ± 0.43 | -1.92 ± 0.2 |
| GAUGAGCAAUAUUACGAGUG | -3.06 ± 0.17 | -0.833 ± 0.18 |
| GAUGAGCAAUAUUACGAUAG | -3.33 ± 0.16 | -2.42 ± 0.17 |
| GAUGAGCAAUAUUACGCAGC | – | -1.61 ± 0.41 |
| GAUGAGCAAUAUUACGCCCU | -1.75 ± 0.15 | -1.4 ± 0.17 |
| GAUGAGCAAUAUUACGCCGG | – | -2.46 ± 0.45 |
| GAUGAGCAAUAUUACGCUAG | – | -1.33 ± 0.39 |
| GAUGAGCAAUAUUACGGGCG | -3.36 ± 0.39 | -1.45 ± 0.26 |
| GAUGAGCAAUAUUACGGGGC | -3.24 ± 0.33 | -2.28 ± 0.23 |
| GAUGAGCAAUAUUACGUAAA | -3.81 ± 0.17 | -1.37 ± 0.15 |
| GAUGAGCAAUAUUACGUACC | -0.53 ± 0.35 | -1.77 ± 0.44 |
| GAUGAGCAAUAUUACGUCAA | -3.32 ± 0.28 | -3.44 ± 0.37 |
| GAUGAGCAAUAUUACGUCAC | -3.62 ± 0.4 | -2.47 ± 0.26 |

| Sequence | self-splicing fitness (ln) (30 °C) | self-splicing fitness (ln) (37 °C) |
| --- | --- | --- |
| GAUGAGCAAUAUUACGUCGG | – | -2.87 ± 0.34 |
| GAUGAGCAAUAUUACGUGGA | -2.47 ± 0.21 | -2.5 ± 0.22 |
| GAUGAGCAAUAUUACGUUAA | -2.39 ± 0.32 | – |
| GAUUAGCAAUAUUACGAGAC | -1.51 ± 0.3 | -1.1 ± 0.22 |
| GAUUAGCAAUAUUACGAGCU | -1.23 ± 0.088 | -0.791 ± 0.16 |
| GAUUAGCAAUAUUACGAGUC | -3.17 ± 0.27 | -2.58 ± 0.33 |
| GAUUAGCAAUAUUACGCAUU | -2.53 ± 0.14 | -2.25 ± 0.17 |
| GAUUAGCAAUAUUACGCCUA | -0.405 ± 0.092 | 0.169 ± 0.095 |
| GAUUAGCAAUAUUACGCGAU | -3.61 ± 0.37 | -1.27 ± 0.44 |
| GAUUAGCAAUAUUACGGCGA | -1.12 ± 0.11 | -0.219 ± 0.11 |
| GAUUAGCAAUAUUACGGCUC | 0.285 ± 0.096 | 0.441 ± 0.12 |
| GAUUAGCAAUAUUACGGGCG | -1.63 ± 0.15 | -1.33 ± 0.17 |
| GAUUAGCAAUAUUACGGUAC | -2.14 ± 0.37 | -0.994 ± 0.22 |
| GAUUAGCAAUAUUACGGUGC | -1.8 ± 0.34 | -1.4 ± 0.32 |
| GAUUAGCAAUAUUACGGUUC | -3.38 ± 0.18 | -1.96 ± 0.23 |
| GAUUAGCAAUAUUACGGUUG | -1.43 ± 0.12 | -1.02 ± 0.15 |
| GAUUAGCAAUAUUACGUCCG | -1.73 ± 0.25 | -2.61 ± 0.41 |
| GAUUAGCAAUAUUACGUCUA | -1.14 ± 0.095 | -0.229 ± 0.085 |
| GAUUAGCAAUAUUACGUCUC | -1.24 ± 0.33 | -0.965 ± 0.32 |
| GAUUAGCAAUAUUACGUGGU | -2.61 ± 0.18 | -2.47 ± 0.2 |
| GCAAAGCAAUAUUACGAAAG | -2.86 ± 0.19 | -1.94 ± 0.21 |
| GCAAAGCAAUAUUACGAAGA | -1.88 ± 0.18 | -2.45 ± 0.23 |
| GCAAAGCAAUAUUACGAGCA | -2.04 ± 0.095 | -0.394 ± 0.08 |
| GCAAAGCAAUAUUACGAUAC | -1.69 ± 0.1 | -0.587 ± 0.14 |
| GCAAAGCAAUAUUACGAUCA | -1.4 ± 0.12 | -0.882 ± 0.11 |

| Sequence | self-splicing fitness (ln) (30 °C) | self-splicing fitness (ln) (37 °C) |
| --- | --- | --- |
| GCAAAGCAAUAUUACGCACU | -0.557 ± 0.078 | 0.031 ± 0.092 |
| GCAAAGCAAUAUUACGCCCC | -0.913 ± 0.19 | -0.135 ± 0.31 |
| GCAAAGCAAUAUUACGCUAC | -2.2 ± 0.16 | -2.09 ± 0.26 |
| GCAAAGCAAUAUUACGGAAU | -2.6 ± 0.1 | -0.938 ± 0.11 |
| GCAAAGCAAUAUUACGGAGA | -2.82 ± 0.45 | – |
| GCAAAGCAAUAUUACGGGAA | -2.43 ± 0.1 | -0.474 ± 0.081 |
| GCAAAGCAAUAUUACGGGUA | -1.55 ± 0.11 | -0.7 ± 0.097 |
| GCAAAGCAAUAUUACGGUUG | -2.86 ± 0.13 | -2.04 ± 0.16 |
| GCAAAGCAAUAUUACGUACU | -0.928 ± 0.067 | 0.299 ± 0.095 |
| GCAAAGCAAUAUUACGUCAG | -3.89 ± 0.29 | -1.56 ± 0.16 |
| GCAAAGCAAUAUUACGUCUG | -2.54 ± 0.11 | -1.69 ± 0.085 |
| GCAAAGCAAUAUUACGUGAU | -0.863 ± 0.053 | -0.973 ± 0.075 |
| GCAAAGCAAUAUUACGUGUA | -0.807 ± 0.071 | -0.701 ± 0.074 |
| GCAAAGCAAUAUUACGUUCG | -1.51 ± 0.08 | -0.192 ± 0.12 |
| GCAAAGCAAUAUUACGUUCU | -1.44 ± 0.094 | -0.638 ± 0.097 |
| GCACAGCAAUAUUACGAACA | -1.42 ± 0.11 | -0.85 ± 0.1 |
| GCACAGCAAUAUUACGAAGG | -1.31 ± 0.065 | -0.444 ± 0.096 |
| GCACAGCAAUAUUACGAGCA | -1.55 ± 0.11 | -0.832 ± 0.12 |
| GCACAGCAAUAUUACGAUCG | -1.08 ± 0.05 | -0.27 ± 0.069 |
| GCACAGCAAUAUUACGCAUA | -0.997 ± 0.088 | -0.269 ± 0.085 |
| GCACAGCAAUAUUACGCCUU | -0.943 ± 0.092 | -0.623 ± 0.087 |
| GCACAGCAAUAUUACGCGAA | -0.472 ± 0.066 | 0.308 ± 0.071 |
| GCACAGCAAUAUUACGCGCU | -2.39 ± 0.22 | -1.1 ± 0.19 |
